Measurements reported in US20110172391A1 (published 2011).

Key:
N-precursor protein MINH = N-precursor protein MINH (Synechocystis sp. PCC6803); assay: cell-based or functional assay
precursor protein MINC = precursor protein MINC (Synechocystis sp. PCC6803); assay: cell-based or functional assay

## GVFVHNSADYKDDDDKSGCLAGDTLITLAS [synthetic peptide (ICF)]
N-precursor protein MINH
  rate constant (kobs) of the trans-splicing reaction, pseudo-first order, 10-fold molar excess of ICF: 6.9e-05 s⁻¹

## GVFVHASG [8-aa Ic peptide]
Precursor protein MINC
  fold increase of the N-cleavage rate constant with 10 mM DTT against the Ic peptide alone: ~2 fold
  fold increase of the N-cleavage rate constant with 100 mM DTT against the Ic peptide alone: ~10 fold

## GVFVHN [6-aa Ic peptide]
Precursor protein MINC
  N-cleavage rate against the longer Ic peptide (with 10 mM or 100 mM DTT): ~2 fold slower
